{"source": "patent US20140161798A1", "about": "(Merck Sharp & Dohme, published 2014)", "key": {"[1]": {"molecular_target": "Purified PCSK9 carrying a C-terminal FLAG tag (UniProt Q8NBP7)", "sequence (Q8NBP7 31-692 limits assumed)": "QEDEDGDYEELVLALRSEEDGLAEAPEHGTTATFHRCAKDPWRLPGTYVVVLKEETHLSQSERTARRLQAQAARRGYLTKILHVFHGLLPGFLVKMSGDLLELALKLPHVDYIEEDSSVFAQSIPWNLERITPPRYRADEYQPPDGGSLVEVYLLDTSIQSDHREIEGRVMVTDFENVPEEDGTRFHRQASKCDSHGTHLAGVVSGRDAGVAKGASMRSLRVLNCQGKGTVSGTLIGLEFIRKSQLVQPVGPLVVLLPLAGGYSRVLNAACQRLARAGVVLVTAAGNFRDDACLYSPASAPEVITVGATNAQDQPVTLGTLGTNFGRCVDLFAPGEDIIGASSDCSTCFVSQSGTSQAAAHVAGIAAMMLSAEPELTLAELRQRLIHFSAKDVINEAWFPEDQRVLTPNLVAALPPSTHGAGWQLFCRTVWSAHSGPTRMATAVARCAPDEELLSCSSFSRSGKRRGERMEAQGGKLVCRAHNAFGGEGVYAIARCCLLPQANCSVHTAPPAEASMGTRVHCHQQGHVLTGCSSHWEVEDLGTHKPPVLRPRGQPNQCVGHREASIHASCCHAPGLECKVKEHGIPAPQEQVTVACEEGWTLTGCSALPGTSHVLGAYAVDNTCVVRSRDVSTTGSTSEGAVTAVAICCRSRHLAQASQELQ", "assay": "AlphaScreen PCSK9-FLAG/His-LDLR; log[antibody] ug/ml 0.871832"}, "[2]": {"molecular_target": "Purified PCSK9 carrying a C-terminal FLAG tag (UniProt Q8NBP7)", "assay": "AlphaScreen PCSK9-FLAG/His-LDLR; log[antibody] ug/ml 1.826075"}, "[3]": {"molecular_target": "Purified PCSK9 carrying a C-terminal FLAG tag (UniProt Q8NBP7)", "assay": "AlphaScreen PCSK9-FLAG/His-LDLR; log[antibody] ug/ml -2.46802"}, "[4]": {"molecular_target": "Purified PCSK9 carrying a C-terminal FLAG tag (UniProt Q8NBP7)", "assay": "AlphaScreen PCSK9-FLAG/His-LDLR; log[antibody] ug/ml 0.871832", "remark": "listed apart in the source"}, "[5]": {"molecular_target": "Purified PCSK9 carrying a C-terminal FLAG tag (UniProt Q8NBP7)", "assay": "AlphaScreen PCSK9-FLAG/His-LDLR; log[antibody] ug/ml -1.03665"}, "[6]": {"molecular_target": "Purified PCSK9 carrying a C-terminal FLAG tag (UniProt Q8NBP7)", "assay": "AlphaScreen PCSK9-FLAG/His-LDLR; log[antibody] ug/ml -1.51377"}, "[7]": {"molecular_target": "Purified PCSK9 carrying a C-terminal FLAG tag (UniProt Q8NBP7)", "assay": "AlphaScreen PCSK9-FLAG/His-LDLR; log[antibody] ug/ml -1.51377", "remark": "listed apart in the source"}, "[8]": {"molecular_target": "Purified PCSK9 carrying a C-terminal FLAG tag (UniProt Q8NBP7)", "assay": "AlphaScreen PCSK9-FLAG/His-LDLR; log[antibody] ug/ml -1.9909"}, "[9]": {"molecular_target": "Purified PCSK9 carrying a C-terminal FLAG tag (UniProt Q8NBP7)", "assay": "AlphaScreen PCSK9-FLAG/His-LDLR; log[antibody] ug/ml -0.55953"}, "[10]": {"molecular_target": "bacu-PCSK9-WT (UniProt Q8NBP7)", "sequence (Q8NBP7 31-692 limits assumed)": "as above", "assay": "cell-based or functional assay"}, "[11]": {"molecular_target": "Purified PCSK9 carrying a C-terminal FLAG tag (UniProt Q8NBP7)", "assay": "AlphaScreen PCSK9-FLAG/His-LDLR; log[antibody] ug/ml -1.03665", "remark": "listed apart in the source"}, "[12]": {"molecular_target": "Purified PCSK9 carrying a C-terminal FLAG tag (UniProt Q8NBP7)", "assay": "AlphaScreen PCSK9-FLAG/His-LDLR; log[antibody] ug/ml 1.826075", "remark": "listed apart in the source"}, "[13]": {"molecular_target": "Purified PCSK9 carrying a C-terminal FLAG tag (UniProt Q8NBP7)", "assay": "AlphaScreen PCSK9-FLAG/His-LDLR; log[antibody] ug/ml -2.94514"}, "[14]": {"molecular_target": "Purified PCSK9 carrying a C-terminal FLAG tag (UniProt Q8NBP7)", "assay": "AlphaScreen PCSK9-FLAG/His-LDLR; log[antibody] ug/ml -2.46802", "remark": "listed apart in the source"}, "[15]": {"molecular_target": "Purified PCSK9 carrying a C-terminal FLAG tag (UniProt Q8NBP7)", "assay": "AlphaScreen PCSK9-FLAG/His-LDLR; log[antibody] ug/ml 1.348954"}, "[16]": {"molecular_target": "Purified PCSK9 carrying a C-terminal FLAG tag (UniProt Q8NBP7)", "assay": "AlphaScreen PCSK9-FLAG/His-LDLR; log[antibody] ug/ml 0.394711"}, "[17]": {"molecular_target": "Purified PCSK9 carrying a C-terminal FLAG tag (UniProt Q8NBP7)", "assay": "AlphaScreen PCSK9-FLAG/His-LDLR; log[antibody] ug/ml -1.9909", "remark": "listed apart in the source"}, "[18]": {"molecular_target": "Purified PCSK9 carrying a C-terminal FLAG tag (UniProt Q8NBP7)", "assay": "AlphaScreen PCSK9-FLAG/His-LDLR; log[antibody] ug/ml 1.348954", "remark": "listed apart in the source"}, "[19]": {"molecular_target": "Purified PCSK9 carrying a C-terminal FLAG tag (UniProt Q8NBP7)", "assay": "AlphaScreen PCSK9-FLAG/His-LDLR; log[antibody] ug/ml -0.08241"}, "[20]": {"molecular_target": "Purified PCSK9 carrying a C-terminal FLAG tag (UniProt Q8NBP7)", "assay": "AlphaScreen PCSK9-FLAG/His-LDLR; log[antibody] ug/ml -0.55953", "remark": "listed apart in the source"}, "[21]": {"molecular_target": "Purified PCSK9 carrying a C-terminal FLAG tag (UniProt Q8NBP7)", "assay": "AlphaScreen PCSK9-FLAG/His-LDLR; log[antibody] ug/ml 0.394711", "remark": "listed apart in the source"}, "[22]": {"molecular_target": "Purified PCSK9 carrying a C-terminal FLAG tag (UniProt Q8NBP7)", "assay": "AlphaScreen PCSK9-FLAG/His-LDLR; log[antibody] ug/ml -0.08241", "remark": "listed apart in the source"}, "[23]": {"molecular_target": "T1, Purified PCSK9 carrying a C-terminal FLAG tag (UniProt Q8NBP7 31-692)", "T1 construct": "also called PCSK9-FLAG; PCSK9-Flag; not shown: C-terminal FLAG tag", "T1 sequence (Q8NBP7 31-692 limits assumed)": "as above", "assay": "AlphaScreen, inhibition of PCSK9-Flag/His-tagged LDL receptor interaction; average of two measurements", "protocol": "This technique required that “donor” and “acceptor” beads be brought into proximity via protein—protein interaction, resulting in increased luminescence (Ullman et al., Proc. Nat. Acad. Sci. (1994) 91:5426-5430). […] About 2.5 μl of biotinylated anti-Flag-M2 antibody (1.8 μg/ml) was added and the mixture incubated for 1 hour. Afterward 5 μl of streptavidin donor bead and nickel chelate acceptor bead (1:1 mixture) was added and the assay incubated overnight. AlphaScreen signal (counts per second) was analyzed using an EnVision microplate reader (Perkin-Elmer). All data points were determined in triplicate. Assays were carried out at 23° C. in buffer containing 25 mM HEPES, 0.1 M NaCl, pH 7.4, 0.1% BSA. The inhibition assays were determined similarly with slight adjustments to assay volumes and protein concentrations."}}, "data": [{"molecule": "Rabbit anti-murine-PCSK9 polyclonal antibody, Cayman Chemical Cat.#10008811 (anti-PCSK9-catalytic domain antibody)", "values": [{"measurement": "AlphaScreen mean counts", "setting": "[1]", "result": 55600, "unit": "counts"}, {"measurement": "AlphaScreen mean counts", "setting": "[2]", "result": 6840, "unit": "counts"}, {"measurement": "AlphaScreen mean counts", "setting": "[3]", "result": 80600, "unit": "counts"}, {"measurement": "AlphaScreen mean counts", "setting": "[4]", "result": 33300, "unit": "counts"}, {"measurement": "AlphaScreen mean counts", "setting": "[5]", "result": 124000, "unit": "counts"}, {"measurement": "AlphaScreen mean counts", "setting": "[6]", "result": 85600, "unit": "counts"}, {"measurement": "AlphaScreen mean counts", "setting": "[7]", "result": 126000, "unit": "counts"}, {"measurement": "AlphaScreen mean counts", "setting": "[8]", "result": 130000, "unit": "counts"}, {"measurement": "AlphaScreen mean counts", "setting": "[9]", "result": 77400, "unit": "counts"}, {"measurement": "DiI-LDL uptake by HepG2 cells, 6 hour incubation, [PCSK9] 1.67 ug/ml, antibody 100 ug/ml (fluorescence intensity)", "setting": "[10]", "result": "2.95e+07"}, {"measurement": "DiI-LDL uptake by HepG2 cells, 6 hour incubation, [PCSK9] 5 ug/ml, antibody 100 ug/ml (fluorescence intensity)", "setting": "[10]", "result": "2.56e+07"}, {"measurement": "DiI-LDL uptake by HepG2 cells, 6 hour incubation, [PCSK9] 15 ug/ml, antibody 100 ug/ml (fluorescence intensity)", "setting": "[10]", "result": "2.24e+07"}, {"measurement": "DiI-LDL uptake by HepG2 cells, 18 hour incubation, [PCSK9] 1.67 ug/ml, antibody 100 ug/ml (fluorescence intensity)", "setting": "[10]", "result": "3.2e+07"}, {"measurement": "DiI-LDL uptake by HepG2 cells, 18 hour incubation, [PCSK9] 5 ug/ml, antibody 100 ug/ml (fluorescence intensity)", "setting": "[10]", "result": "2.59e+07"}, {"measurement": "DiI-LDL uptake by HepG2 cells, 18 hour incubation, [PCSK9] 15 ug/ml, antibody 100 ug/ml (fluorescence intensity)", "setting": "[10]", "result": "2.18e+07"}, {"measurement": "AlphaScreen mean counts", "setting": "[11]", "result": 79800, "unit": "counts"}, {"measurement": "AlphaScreen mean counts", "setting": "[12]", "result": 2100, "unit": "counts"}, {"measurement": "AlphaScreen mean counts", "setting": "[13]", "result": 85400, "unit": "counts"}, {"measurement": "AlphaScreen mean counts", "setting": "[14]", "result": 132000, "unit": "counts"}, {"measurement": "AlphaScreen mean counts", "setting": "[15]", "result": 12300, "unit": "counts"}, {"measurement": "AlphaScreen mean counts", "setting": "[16]", "result": 60100, "unit": "counts"}, {"measurement": "AlphaScreen mean counts", "setting": "[17]", "result": 81500, "unit": "counts"}, {"measurement": "AlphaScreen mean counts", "setting": "[18]", "result": 25800, "unit": "counts"}, {"measurement": "AlphaScreen mean counts", "setting": "[19]", "result": 70000, "unit": "counts"}, {"measurement": "AlphaScreen mean counts", "setting": "[20]", "result": 128000, "unit": "counts"}, {"measurement": "AlphaScreen mean counts", "setting": "[21]", "result": 93500, "unit": "counts"}, {"measurement": "AlphaScreen mean counts", "setting": "[22]", "result": 94800, "unit": "counts"}]}, {"molecule": "1F11/1G11 anti-PCSK9 antibody (IgG2a) (antibody, V domains shown, also called anti-human PCSK9 Antibody, 1F11/1G11) VH: EVQLQQSGPELVKPGASVKISCKVSGYTFTDYYMNWVKQSHGKSLEWIGDINPNNGGAIYNQKFKGKATLTVDKSSSIAYMELRSLTSEDSAVYYCTSGIITEIAEDFWGQGTTLTVSS VL: DIVMTQSQKFMSTSVGDRVSVTCKASQNVGTNVVWYQQKPGQSPKALIHSASYRYSGVPDRFKGSGSGTDFTLTITNVQSEDLAGFFCQQYKTYPYTFGGGTQLEIKR", "values": [{"measurement": "IC50", "setting": "[23]", "result": 0.049, "unit": "nM"}]}]}
